Values quoted from earlier work in paper PMC4250281.
pKd: −log10 of the molar value.

Target: 14-3-3 zeta (Homo sapiens) (UniProt P63104)
UniProt P63104, sequence (P63104 whole entry): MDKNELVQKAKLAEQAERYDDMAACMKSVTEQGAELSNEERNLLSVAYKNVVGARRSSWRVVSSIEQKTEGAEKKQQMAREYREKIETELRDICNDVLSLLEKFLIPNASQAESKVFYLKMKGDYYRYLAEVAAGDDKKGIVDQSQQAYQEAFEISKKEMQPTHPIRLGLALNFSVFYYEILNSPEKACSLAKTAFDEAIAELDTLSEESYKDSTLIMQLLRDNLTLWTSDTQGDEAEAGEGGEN

Substance: Raf-1
- pKd: 6.91
